What was measured:
Test in all cases: pull-down binding Z-score (relative to library population); higher = stronger binding
Conditions in all cases: RNA library: Library-2
[1] = system: TO-3-N3 (biotin conjugate)
Outline: (§1)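 Streptavidin beads bearing 100 pmol of a biotin-conjugated small molecule were incubated for 60 min at 25 °C with 1 μg of heat-folded, Cy5- or Cy3-end-labelled RNA library in phosphate/NaCl/KCl buffer. Hot SDS eluted the RNA that stayed bound after three washes, and this RNA was hybridised for 20 h at 55.5 °C to a DNA barcode microarray. Binding was expressed as a Z-score against the library mean and standard deviation, after subtraction of a beads-only signal and trimmed averaging of barcoded replicate probes.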

[2] = system: TO-3-N3-2 (biotin conjugate)
Outline: as §1

TO-N3 (biotin conjugate) = system: TO-N3 (biotin conjugate)
Outline: as §1

[3] = system: TO-N3-2 (biotin conjugate)
Outline: as §1

Row | Sequence | pull-down binding Z-score [1] | pull-down binding Z-score [2] | pull-down binding Z-score (TO-N3 (biotin conjugate)) | pull-down binding Z-score [3]
1 | UAAAGCCACGUAUAAACCAAAUACCUGGUGUAUACGUUGUCUUUG | -0.523 | -0.279 | -0.75 | -0.691
2 | UAAAGUACUUAAUGAGAAGUGCUCUGCCUAUACAGUUGAACUCGGUACAGAAGUAAAUGAGUUCGCCUGUGUUGUGGCAGAUGCUGUCAUAAAAACUUUG [DMSMaPseq_invitro_SARS-CoV-2_Motif_52] | -0.419 | 0.122 | -0.501 | 0.722
3 | UAAAUAAGGGACACUUUGAUGGACAACAGGGUGAAGUACCAGUUUCUAUCAUUAAUAACACUGUUUACACAAAAGUUGAUGGUGUUGAUGUAGAAUUGUUUG | -0.266 | 0.0932 | -0.00789 | -0.111
4 | UAAAUUUUUGGCUUUGUGUGCUGACUCUAUCAUUAUUGGUGGAGCUAAACUUAAAGCCUUGAAUUUA | -0.848 | 0.0426 | -0.962 | -1.2
5 | UAACACCAGGAACAAAUACUUCUAACCAGGUUGCUGUUCUUUAUCAGGGUGUUA [SHAPE_invivo_SARS-CoV-2_Motif_440] | -0.383 | -0.22 | -0.633 | -1.19
6 | UAACAGUUACACCGGAAGCCAAUAUGGAUCAAGAAUCCUUUGGUGGUGCAUCGUGUUG | -0.833 | -0.365 | -0.9 | -0.452
7 | UAAGGAAGGAAGUUCUGUUGAAUUAAAACACUUCUUCUUUG [SHAPE_invitro_SARS-CoV-2_Motif_269] | -0.963 | -0.389 | -1.1 | -0.905
8 | UAAGGAGAGUGUUCAGACAUUCUUUAAGCUUG [DMSMaPseq_invitro_SARS-CoV-2_Motif_43] | -0.408 | -0.244 | -0.507 | -0.426
9 | UAAUAACGCUACUAAUGUUGUUAUUA | -0.595 | -0.411 | -1.02 | -1.73
10 | UAAUCAGACAAGGAACUGAUUA | -0.426 | -0.537 | -0.836 | -0.943
11 | UAAUGGUUUAACUUCUAUUA [DMSMaPseq_invitro_SARS-CoV-2_Motif_100] | -0.945 | -0.395 | -1.33 | -1.37
12 | UAAUUAUAAAUUACCAGAUGAUUUUACAGGCUGCGUUAUAGCUUGGAAUUCUAACAAUCUUGAUUCUAAGGUUGGUGGUAAUUAUAAUUA | -0.486 | 0.371 | -0.838 | -0.713
13 | UAAUUCUUGGCUUAUGUGGUUAAUAAUUA [DMSMaPseq_invitro_SARS-CoV-2_Motif_139] | -0.0604 | -0.0756 | -0.293 | -0.709
14 | UACAAACUUGUG [DMSMaPseq_invitro_SARS-CoV-2_Motif_398] | -0.625 | -0.609 | -1.02 | -1.04
15 | UACAAUUUGCCUAUGCCAACAGGAAUAGGUUUUUGUA | 0.38 | -0.176 | -0.122 | -1.3
16 | UACAUGUGUUGGUAGCGAUAAUGUUACUGACUUUAAUGCAAUUGCAACAUGUG [DMSMaPseq_invitro_SARS-CoV-2_Multi_49_ComplexLevel_1] | -0.662 | 0.0202 | -0.826 | -0.909

Row | Sequence | pull-down binding Z-score [1] | pull-down binding Z-score [2] | pull-down binding Z-score (TO-N3 (biotin conjugate)) | pull-down binding Z-score [3]
17 | UACCAGACUAUAACACAUAUAAAAAUACGUGUGAUGGUA [DMSMaPseq_invitro_SARS-CoV-2_Motif_221] | -0.929 | -0.385 | -1.03 | -1.24
18 | UACCAGCUGUACUCAACUCAAUUGAGUACAGACACUGGUG [DMSMaPseq_invitro_SARS-CoV-2_Motif_468] | -0.751 | -0.473 | -1.16 | -1.06
19 | UACCAUUUAAUGAUGGUG | 0.115 | -0.21 | -0.0588 | -1.03
20 | UACCGAUGCCAUAGAGGUG [IAV_invivo_PB1_2_Motif_30+IAV_invivo_PB1_2_Motif_30] | -0.183 | -0.0397 | -0.0495 | 0.166
21 | UACCUUUUGCUAUGGGUA | -0.317 | -0.454 | -0.582 | -1.26
22 | UACUAAUAUGUUUACACCACUAAUUCAACCUAUUGGUGCUUUGGACAUAUCAGCAUCUAUAGUAGCUGGUGGUAUUGUAGCUAUCGUAGUA [SHAPE_invivo_SARS-CoV-2_Motif_188] | 0.0327 | 0.253 | 0.303 | 0.354
23 | UACUGGUUCUAUACCUUGUA [SARS-CoV-2-Conserved-Structured-4_Interval-7011-7130_Motif_3] | 0.217 | -0.095 | -0.0242 | -0.722
24 | UACUUUACUCAGAGUA [SHAPE_invitro_SARS-CoV-2_Motif_368] | -1.06 | -0.589 | -1.58 | -1.64
25 | UAGAAUAGACGGUGACAUGGUACCACAUAUAUCACGUCAACGUCUUACUA [SHAPE_invivo_SARS-CoV-2_Motif_261] | -0.605 | -0.164 | -0.562 | -0.953
26 | UAGACAAUUCUAGUCUUACUAUUAAGAAACCUAAUGAAUUAUCUA [SHAPE_invivo_SARS-CoV-2_Motif_135] | -1.02 | -0.287 | -1.27 | -1.41
27 | UAGAGAAAACAACAGAGUUGUUAUUUCUAGUGAUGUUCUUGUUAACAACUAAACGAACAAUGUUUGUUUUUCUUGUUUUAUUGCCACUAGUCUCUA [SHAPE_invitro_SARS-CoV-2_Multi_58_ComplexLevel_1] | -0.989 | -0.215 | -0.976 | -0.78
28 | UAGAGGUACAACAGUACUUUUA | -0.813 | -0.423 | -1.12 | -1.28
29 | UAGAGUGCUAUCUA [SHAPE_invitro_SARS-CoV-2_Motif_352] | -0.809 | -0.553 | -0.957 | -0.86
30 | UAGAUGCUGUAAAUUUACUUACUAAUAUGUUUACACCACUAAUUCAACCUAUUGGUGCUUUGGACAUAUCAGCAUCUA [DMSMaPseq_invitro_SARS-CoV-2_Multi_30_ComplexLevel_1] | 0.39 | -0.0621 | 0.0803 | -0.105
31 | UAGCGUGCCUUUGUAAGCACAAGCUG | 0.532 | 0.0842 | 0.57 | 0.342
32 | UAGCUGGUUUUGCUA [SHAPE_invivo_SARS-CoV-2_Motif_257] | 0.71 | 0.105 | 0.281 | -0.612

Reference: the supplement of paper PMC11865577
